The values that follow come from patent US20250277031A1 (BEIJING HANMI PHARMACEUTICAL, published 2025).

Assay [1] concerns the target T1, recombinant human CD47 (human, UniProt Q08722 19-139).
T1 construct: also called antigen CD47
Kind of assay: SPR, Biacore X100, antibody captured on Protein A chip, CD47 as analyte. From the text: Biacore X100 instrument (purchased from GE) was used to detect the kinetic constant of the chimeric anti-human CD47 monoclonal antibodies binding to its antigen human CD47. This instrument utilizes optical surface plasmon resonance technology to detect the association and dissociation between the molecules coated on the biochip and the molecules to be tested. The main reagent used is Protein A chip (GE Healthcare, 29-1275-57). The experimental procedure is briefly described as follows: the chimeric anti-human CD47 antibodies were diluted in running buffer (1×HBS-EP+10 mM HEPES, 150 mM NaCl, 3 mM EDTA, 0.05% surfactant P20, pH7.4). During the capture-binding phase, the antibodies at a concentration of 2 μg/mL were injected for 60 seconds at a speed of 10 μL/min. During the binding phase, the antigen CD47 was diluted into multiple concentrations with running buffer, injected for 120 seconds at a speed of 30 μL/min respectively. During the dissociation phase, running buffer was injected for 600 seconds at a speed of 10 μL/min. The regeneration condition is 10 mM glycinate solution, pH1.5. Association kinetic constants and dissociation kinetic constants were analyzed and calculated by Biacore X100 evaluation software. The association kinetic constants, dissociation kinetic constants and dissociation equilibrium constants of the chimeric anti-human CD47 antibodies were shown in Table 7.
(SPR reads the build-up and loss of mass on a sensor chip optically.)

Assay [2] has as its target recombinant cynomolgus CD47 (cynomolgus, UniProt A0A2K5X523 19-139). The assay can be described thus: ELISA, plate coated with 1 µg/mL recombinant cynomolgus CD47, anti-human IgG-HRP, OD450. As to the method:
Species specificity of the chimeric anti-human CD47 mAbs was determined by ELISA. A 96-well high-adsorption ELISA plate was coated with 1 μg/mL of the recombinant human CD47, cynomolgus CD47, rat CD47 and mouse CD47, at 100 μL per well using carbonate buffer solution, pH=9.6 at 4° C. overnight. The plate was washed 5 times with PBST, and then blocked using PBST with 1% BSA, 300 μL/well, and incubated at 25° C. for 1 hour, and then washed 5 times with PBST. The chimeric anti-human CD47 antibody samples serially diluted in PBST with 1% BSA were added, 100 μL/well, incubated at 25° C. for 1 hour, and then washed 5 times with PBST. The horseradish peroxidase-labeled anti-human IgG antibody (Chemicon, catalog number AP309P) diluted 1:10000 in PBST with 1% BSA was then added, 100 μL per well, and incubated at 25° C. for 1 hour. The plate was washed 5 times with PBST. The colorimetric substrate TMB was added, 100 μL/well, and developed at room temperature for 10 minutes. 1M H₂SO₄ was added, 100 μL/well, to stop the development. The absorbance at 450 nm was read on a microplate reader.
In general terms: In an ELISA, binding on a coated surface is turned into a signal by an enzyme label.

Assay [3] has as its target T2, recombinant human CTLA4 (ACROBiosystems) (human, UniProt P16410 37-162, limits assumed).
T2 construct: counted here as a CD28 family member
Kind of assay: ELISA, plate coated with 1 µg/mL recombinant human protein, anti-human IgG-HRP, OD450; antibody concentration not given. As to the method: (§1) Binding specificity of the chimeric anti-human CD47 mAbs was determined by ELISA. A 96-well high-adsorption ELISA plate was coated with 1 μg/mL of the recombinant human PD1, CD28, CTLA4, ICOS, BTLA, CD47, PD-L2, CD80, CD86, B7-H2, CD47, SIRPα and SIRPγ (all from ACROBiosystems), at 100 μL per well using carbonate buffer solution, pH=9.6 at 4° C. overnight. The plate was washed 5 times with PBST, and then blocked using PBST with 1% BSA, 300 μL/well, and incubated at 25° C. for 1 hour, and then washed 5 times with PBST. The chimeric anti-human CD47 mAb samples serially diluted in PBST with 1% BSA and the control CC-90002 and the isotype control were added, 100 μL/well, incubated at 25° C. for 1 hour, and then washed 5 times with PBST. The horseradish peroxidase-labeled anti-human IgG antibody (Chemicon, catalog number AP309P) diluted 1:10000 in PBST with 1% BSA was then added, 100 μL per well, and incubated at 25° C. for 1 hour. The plate was washed 5 times with PBST. The colorimetric substrate TMB was added, 100 μL/well, and developed at room temperature for 10 minutes. 1M H₂SO₄ was added, 100 μL/well, to stop the development. The absorbance at 450 nm was read on a microplate reader.

Assay [4] concerns the target T3, recombinant human ICOS (ACROBiosystems) (human, UniProt Q9Y6W8 21-140, limits assumed).
T3 construct: counted here as a CD28 family member
T3 sequence (looked up): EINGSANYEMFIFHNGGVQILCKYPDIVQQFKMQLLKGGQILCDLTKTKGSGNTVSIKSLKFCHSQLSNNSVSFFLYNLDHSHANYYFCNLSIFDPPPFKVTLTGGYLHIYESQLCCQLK
The description is as above. As for the experimental part: as §1

In assay [5] the target is T4, recombinant human CD47-Fc protein (ACROBiosystems, catalog number CD7-H52A5) (human, UniProt Q08722 19-139).
T4 construct: bought; not shown: Fc part of a bought fusion protein, not described
Kind of assay: blocking ELISA: plate coated with human CD47-Fc, 2 nM biotin-labelled SIRPα as the blocked ligand, falling OD450 curve; the sheet labels the half-maximal value EC50. As for the experimental part: A 96-well high-adsorption ELISA plate was coated with 1 μg/mL of the recombinant human CD47-Fc (ACROBiosystems) at 100 μL per well using carbonate buffer solution, pH=9.6 at 4° C. overnight. The plate was washed 5 times with PBST, and then blocked using PBST with 1% BSA, 300 μL/well, and incubated at 25° C. for 1 hour, and then washed 5 times with PBST. The anti-human CD47 antibody samples were added, 50 μL/well, the biotin-labelled SIRPα (ACROBiosystems) was added at a concentration of 4 nM (a final concentration of 2 nM), 50 μL/well, incubated at 25° C. for 90 minutes, and then washed 5 times with PBST. The Streptavidin-HRP (BD Pharmingen, catalog number 554066) diluted 1:1000 in PBST with 1% BSA was then added, 100 μL per well, and incubated at 25° C. for 1 hour. The plate was washed 5 times with PBST. The colorimetric substrate TMB was added, 100 μL/well, and developed at room temperature for 10 minutes. 1M H₂SO₄ was added, 100 μL/well, to stop the development. The absorbance at 450 nm was read on a microplate reader.

By Kd is commonly meant the equilibrium constant for the complex coming apart. The term koff denotes the rate constant with which the complex falls apart. One may read the kon as the rate constant with which the complex forms. In general, EC50 refers to the midpoint of the concentration-response curve. By IC50 is commonly meant the concentration that inhibits the measured activity by half.

T1 sequence (Q08722 19-139 limits assumed): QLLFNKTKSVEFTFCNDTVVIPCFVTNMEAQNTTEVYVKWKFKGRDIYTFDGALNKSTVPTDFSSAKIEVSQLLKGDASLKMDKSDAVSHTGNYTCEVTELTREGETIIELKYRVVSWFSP
T4 sequence (Q08722 19-139 limits assumed): as above
T2 sequence (P16410 37-162 limits assumed): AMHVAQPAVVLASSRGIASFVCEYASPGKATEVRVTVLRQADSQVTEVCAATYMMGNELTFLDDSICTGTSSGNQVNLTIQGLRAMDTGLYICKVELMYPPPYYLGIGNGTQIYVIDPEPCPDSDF

B1: chimeric anti-human CD47 monoclonal antibody mAb-18-5 (antibody, human IgG1, kappa)
heavy: not shown
light: DIVMTQSQKFMSTSVGDRVSITCKASQNVRTSIAWYQQKSGQSPKTLIYLASNRHTGVPDRFTGSGSGTDFTLTISNVQSEDLADYFCLQHWNYPFTFGSGTKLEIKRTVAAPSVFIFPPSDEQLKSGTASVVCLLNNFYPREAKVQWKVDNALQSGNSQESVTEQDSKDSTYSLSSTLTLSKADYEKHKVYACEVTHQGLSSPVTKSFNRGEC
As for B1, in assay [1], the dissociation constant Kd was 693 pM, the off-rate constant (koff) stood at 0.000823 s⁻¹ and the kon came to 1.19e+06 M⁻¹ s⁻¹. The EC50 in assay [2] is 89 pM. In addition, the binding result in assay [3] is listed as “no binding”. The binding result in assay [4] is on record as “no binding”. Moreover, the IC50 in assay [5] came to 1860 pM.
